One block for each binder: values may come before it. Groups on a side chain read outwards from the residue. *: point of attachment. Biotin = O=C1N[C@H]2[C@H](CS[C@H]2CCCCC(=O)*)N1; PEG = not defined here
Assays:
Assay in all cases: cell-based or functional assay
chemokine receptor CCR7 = biological target: T1, chemokine receptor CCR7 (human, UniProt P32248 25-378)
T1 sequence (looked up): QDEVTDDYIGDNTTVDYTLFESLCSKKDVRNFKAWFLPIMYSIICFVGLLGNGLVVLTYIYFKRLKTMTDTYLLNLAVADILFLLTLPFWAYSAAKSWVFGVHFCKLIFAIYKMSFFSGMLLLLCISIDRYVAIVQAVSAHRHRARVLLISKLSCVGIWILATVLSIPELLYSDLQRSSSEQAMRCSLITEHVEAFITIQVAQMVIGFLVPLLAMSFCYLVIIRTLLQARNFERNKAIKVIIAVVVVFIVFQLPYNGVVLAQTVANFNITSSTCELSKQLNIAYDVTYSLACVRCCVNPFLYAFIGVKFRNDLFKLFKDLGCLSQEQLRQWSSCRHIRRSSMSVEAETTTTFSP

CCR4 = biological target: T2, CCR4 (human, UniProt P51679 1-360)
T2 sequence (looked up): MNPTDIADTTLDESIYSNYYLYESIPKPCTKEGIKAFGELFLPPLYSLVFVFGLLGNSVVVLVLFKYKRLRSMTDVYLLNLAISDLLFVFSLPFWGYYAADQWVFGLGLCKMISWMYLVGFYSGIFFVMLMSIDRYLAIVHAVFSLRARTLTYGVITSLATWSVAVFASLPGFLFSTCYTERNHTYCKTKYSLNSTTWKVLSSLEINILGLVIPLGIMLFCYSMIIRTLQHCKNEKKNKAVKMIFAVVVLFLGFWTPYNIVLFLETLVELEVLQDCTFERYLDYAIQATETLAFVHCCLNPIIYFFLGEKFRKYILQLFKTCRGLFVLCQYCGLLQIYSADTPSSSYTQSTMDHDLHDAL

hCXCR3 = biological target: T3, hCXCR3 (human, UniProt P49682 1-368)
T3 sequence (looked up): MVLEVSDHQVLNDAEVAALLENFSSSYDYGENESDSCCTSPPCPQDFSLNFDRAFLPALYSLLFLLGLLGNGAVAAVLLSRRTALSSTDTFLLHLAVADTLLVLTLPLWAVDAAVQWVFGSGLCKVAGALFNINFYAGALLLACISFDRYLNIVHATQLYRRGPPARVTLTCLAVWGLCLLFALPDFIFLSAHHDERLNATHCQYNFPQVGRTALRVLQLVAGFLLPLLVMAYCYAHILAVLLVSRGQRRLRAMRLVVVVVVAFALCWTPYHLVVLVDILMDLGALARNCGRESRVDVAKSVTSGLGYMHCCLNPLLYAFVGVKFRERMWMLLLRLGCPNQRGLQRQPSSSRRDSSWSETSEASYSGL

hCCR10 = biological target: T4, hCCR10 (human, UniProt P46092 1-362)
T4 sequence (looked up): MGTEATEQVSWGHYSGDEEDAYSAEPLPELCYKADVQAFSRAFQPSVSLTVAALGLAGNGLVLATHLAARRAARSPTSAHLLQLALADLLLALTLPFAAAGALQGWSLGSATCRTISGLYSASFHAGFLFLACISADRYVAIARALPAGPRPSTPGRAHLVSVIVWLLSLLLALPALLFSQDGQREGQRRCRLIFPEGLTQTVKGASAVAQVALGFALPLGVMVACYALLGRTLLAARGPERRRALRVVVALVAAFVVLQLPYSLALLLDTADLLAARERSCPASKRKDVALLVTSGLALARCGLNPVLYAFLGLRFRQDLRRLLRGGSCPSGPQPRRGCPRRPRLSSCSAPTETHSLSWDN

hCCR5 = hCCR5 (human, UniProt P51681 1-352)
hCCR5, sequence (P51681 whole entry): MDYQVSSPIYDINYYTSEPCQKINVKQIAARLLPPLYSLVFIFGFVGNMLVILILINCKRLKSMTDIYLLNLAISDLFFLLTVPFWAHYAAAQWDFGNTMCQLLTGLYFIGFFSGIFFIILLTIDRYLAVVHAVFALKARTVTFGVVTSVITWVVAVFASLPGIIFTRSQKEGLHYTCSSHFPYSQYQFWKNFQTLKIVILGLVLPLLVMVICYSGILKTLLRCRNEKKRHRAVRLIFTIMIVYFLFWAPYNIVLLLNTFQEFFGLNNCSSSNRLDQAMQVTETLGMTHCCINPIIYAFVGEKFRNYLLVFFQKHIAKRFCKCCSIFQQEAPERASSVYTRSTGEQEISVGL

B1: biotinMIP-3β (CCL19), MIP-3β derivatised at the ε-amino side chain functionality of Lys(78) with Biotin (ligand)
chain: GTNDAEDCCLSVTQKPIPGYIVRNFHYLLIKDGCRVPAVVFTTLRGRQLCAPPDQPWVERIIQRLQRTSAKMKRRSSX
modifications: additional Lys(78) = K(Biotin); assembled on Rink Amide resin (C-terminal amide)
EC50, agonist activity, Aequorin assay (chemokine receptor CCR7): 11 nM

B3: biotinITAC (CXCL11), ITAC derivatised with Biotin at the ε-amino side chain functionality of an additional Lysine inserted at the C-terminus after a PEG spacer (ligand)
chain: FPMFKRGRCLCIGPGVKAVKVADIEKASIMYPSNNCDKIEVIITLKENKGQRCLNPKSKQARLIIKKVERKNFX
modifications: X (position 74) is PEG-K(Biotin): PEG spacer between the protein's C-terminus and an additional biotinylated lysine
EC50, agonist activity, Aequorin assay (hCXCR3): 15.7 nM

B4: biotinCTAC (CCL27), CTAC derivatised at the ε-amino side chain functionality of Lys(87) with PEG-Biotin (ligand)
chain: FLLPPSTACCTQLYRKPLSDKLLRKVIQVELQEADGDCHLQAFVLHLAQRSICIHPQNPSLSQWFEHQERKLHGTLPKLNFGMLRKK([PEG-Biotin])G
modifications: ends and bridges not checked
EC50, agonist activity, Aequorin assay (hCCR10): 49.4 nM

B5: biotinMDC (CCL22), MDC derivatised at the ε-amino side chain functionality of Lys(66) with PEG-Biotin (ligand)
chain: GPYGANMEDSVCCRDYVRYRLPLRVVKHFYWTSDSCPRPGVVLLTFRDKEICADPRVPWVKMILNK([PEG-Biotin])LSQ-NH2
modifications: ends and bridges not checked
EC50, agonist activity, Aequorin assay (CCR4): 4.5 nM

The remaining lines, values ahead:

EC50, agonist activity, Aequorin assay (CCR4): 3.1 nM
B2: biotinTARC (CCL17), TARC derivatised at the ε-amino side chain functionality of Lys(72) with PEG-Biotin (ligand)
chain: ARGTNVGRECCLEYFKGAIPLRKLKTWYQTSEDCSRDAIVFVTVQGRAICSDPNNKRVKNAVKYLQSLERSK([PEG-Biotin])-NH2
modifications: ends and bridges not checked; also: TFA salt

EC50, agonist activity, Aequorin assay (hCCR5): 0.5 nM
B6: biotinRANTES (CCL5), RANTES derivatised at the ε-amino side chain functionality of Lys(67) with Biotin (ligand)
chain: SPYSSDTTPCCFAYIARPLPRAHIKEYFYTSGKCSNPAVVFVTRKNRQVCANPEKKWVREYINSLEK(Biotin)S
modifications: ends and bridges not checked
